We go through one molecule from patent US9872893B2, “Endolysins active against Staphylococcus bacteria, pharmaceutical compositions, and methods relating thereto” (priority 2014, dated 2018).

The data set concerns stationary phase S. aureus NRS-14. Kind of data set: kinetic stability (lytic assay after incubation at indicated temperatures). It is filed as cell-based, Staphylococcus aureus. The following applies: 25 μg/ml. The method, then:
Lytic activity was based on turbidity reduction assay (Nelson D C et al. (2012) Endolysins as antimicrobials. Adv Virus Res 83:299-365). Briefly, bacterial cells were centrifuged (4,000 RPM, 5 minutes, 4° C.), re-suspended in buffer and mixed 1:1 (v/v) with endolysin to a final OD600=1. OD600 readings were taken every 15 seconds for 20 minutes at 37° C. Endolysin activity was equated to the Vmax dictated by the linear portion of the resulting killing curve. Each experiment was performed in triplicate.
To determine dose response, PlyGRCS was serially diluted and each dosage (100 μl) was added in triplicate to a 96-well polystyrene microtiter plate (Nest Biotech Co, Ltd) just before addition of bacterial cells (100 μl) according to the turbidity reduction assay described above. For optimum pH determination, bacterial cells were suspended in 40 mM boric acid/phosphoric acid (BP) buffer, pH 3-11, and were challenged against PlyGRCS. The influence of NaCl on PlyGRCS activity was tested in BP buffer at the experimentally determined pH optimum using the same assay. The effect of divalent cations was determined using the turbidity reduction assay with several modifications. […] Kinetic stability was evaluated (Son B et al. (2012) Characterization of LysB4, an endolysin from the Bacillus cereus-infecting bacteriophage B4. BMC Microbiol 12:33) with minor modifications. […]

Where only a bound is given, the exact number is not on record here.

B1: PlyGRCS: endolysin of bacteriophage GRCS (ORF15), amino acids 1-250, SEQ ID NO: 5, C-terminal 6× His tag (protein)
chain: MKSQQQAKEWIYKHEGTGVDFDGAYGFQCMDLAVAYVYYITDGKVRMWGNAKDAINNDFKGLATVYENTPSFKPQLGDVAVYTNSQYGHIQCVISGNLDYYTCLEQNWLGGGFDGWEKATIRTHYYDGVTHFIRPKFSASNSNVLETSKVNTFGNWKQNQYGTYYRNENATFTCGFLPIFARVGSPKLSEPNGYWFQPNGYTPYDEVCLSDGLVWIGYNWQGTRYYLPVRQWNGKTGNSYSIGLPWGVFS
modifications: C-terminal 6xHis tag; Synthetically generated polypeptide (PlyGRCS phage (S. aureus))
Where the note is “after 30 minutes at 4° C. to 37° C.”, B1 registered a residual lytic activity of over 90%. Besides, the “lytic activity after heating (in words)” value (after 30 minutes at ≧40° C.) is given as “lytic activity was not observed”.
